Results reported in patent US20220305081A1.

Target: human SIRPγ (signal regulatory protein gamma), expressed on cells (human) (UniProt Q9P1W8)
Experiment: cell-based or functional assay

Sequence of UniProt Q9P1W8 (Q9P1W8 29-387): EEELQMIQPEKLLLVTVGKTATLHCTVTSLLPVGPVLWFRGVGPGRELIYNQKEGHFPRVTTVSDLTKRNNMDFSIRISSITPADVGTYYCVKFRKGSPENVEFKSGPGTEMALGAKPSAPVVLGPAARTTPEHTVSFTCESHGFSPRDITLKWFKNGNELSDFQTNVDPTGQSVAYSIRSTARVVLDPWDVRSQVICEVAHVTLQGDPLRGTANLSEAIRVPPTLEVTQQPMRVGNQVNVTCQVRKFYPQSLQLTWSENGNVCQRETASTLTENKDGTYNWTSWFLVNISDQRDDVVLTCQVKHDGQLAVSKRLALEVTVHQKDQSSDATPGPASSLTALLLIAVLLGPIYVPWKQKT

anti-SIRPγ monoclonal antibody clone OX117
level of IFNγ secreted by T cells, relative to OX119-treated cells: > 6 fold
level of IFNγ secreted by T cells, relative to cells treated with LSB2.20: 2 fold
